Assay [1] concerns the target T1, recombinant human LILRB2 (human, UniProt Q8N423 22-460, limits assumed).
T1 construct: also called ILT4
As to the kind of experiment: SPR, LILRB2 immobilised, scFv as analyte.

The target of assay [2] is T2, human LILRB2 on the cell surface (human, UniProt Q8N423 22-597).
T2 construct: whole, on cells; also called CHO K1 cells expressing human LILRB2; LILRB2 on HMDMs
As to the kind of experiment: flow cytometry, CHO cells expressing LILRB2; competitor HLA-G tetramer. On the technique in general: A flow cytometer gives signals particle by particle.

Assay [3] deals with T3, LILRA1 on transiently transfected CHO cells (UniProt O75019 17-489, limits assumed).
T3 construct: whole, on cells; V5 tag at the N-terminus
Description: CELISA, transiently transfected CHO cells; scFv cross-linked with an anti-framework antibody.

In assay [4] the target is T4, LILRA2 on transiently transfected CHO cells (UniProt Q8N149 24-483).
T4 construct: whole, on cells; V5 tag at the N-terminus
The assay is described as above.

Assay [5] deals with T5, LILRA3 on transiently transfected CHO cells (UniProt Q8N6C8 24-439).
T5 construct: whole, on cells; V5 tag at the N-terminus
The description is as above.

The target in assay [6] is T6, LILRA4 on transiently transfected CHO cells (UniProt P59901 24-499).
T6 construct: whole, on cells; V5 tag at the N-terminus
The assay is described as above.

For assay [7], the target named is T7, LILRA5 on transiently transfected CHO cells (UniProt A6NI73 42-299).
T7 construct: whole, on cells; V5 tag at the N-terminus
Described as above.

Assay [8] addresses T8, LILRA6 on transiently transfected CHO cells (UniProt Q6PI73 24-481).
T8 construct: whole, on cells; V5 tag at the N-terminus
Described as above.

Assay [9] has as its target T9, LILRB3 on transiently transfected CHO cells (UniProt O75022 24-631, limits assumed).
T9 construct: whole, on cells; V5 tag at the N-terminus
The assay is described as above.

Assay [10] concerns the target T10, LILRB4 on transiently transfected CHO cells (UniProt Q8NHJ6 22-448).
T10 construct: whole, on cells; V5 tag at the N-terminus
The description is as above.

In assay [11] the target is T11, LILRB5 on transiently transfected CHO cells (UniProt O75023 24-590, limits assumed).
T11 construct: whole, on cells; V5 tag at the N-terminus
The description is as above.

The target of assay [12] is T2, human LILRB2 on the cell surface. As to the kind of experiment: flow cytometry, CHO cells expressing LILRB2; competitor HLA-G tetramer; reference PRO2518.

T1 sequence (Q8N423 22-460 limits assumed): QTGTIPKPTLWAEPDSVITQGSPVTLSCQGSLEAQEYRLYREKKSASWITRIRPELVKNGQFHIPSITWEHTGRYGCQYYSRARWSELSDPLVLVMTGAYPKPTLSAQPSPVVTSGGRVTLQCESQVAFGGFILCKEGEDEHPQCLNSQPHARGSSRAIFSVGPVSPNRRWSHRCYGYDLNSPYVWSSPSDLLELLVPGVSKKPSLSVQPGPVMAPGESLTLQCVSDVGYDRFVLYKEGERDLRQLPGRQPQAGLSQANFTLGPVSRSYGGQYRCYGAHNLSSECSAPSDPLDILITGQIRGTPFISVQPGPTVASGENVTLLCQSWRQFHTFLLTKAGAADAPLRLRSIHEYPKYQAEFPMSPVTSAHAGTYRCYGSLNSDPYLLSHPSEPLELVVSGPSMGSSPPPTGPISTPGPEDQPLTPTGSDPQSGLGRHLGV
T2 sequence (Q8N423 22-597): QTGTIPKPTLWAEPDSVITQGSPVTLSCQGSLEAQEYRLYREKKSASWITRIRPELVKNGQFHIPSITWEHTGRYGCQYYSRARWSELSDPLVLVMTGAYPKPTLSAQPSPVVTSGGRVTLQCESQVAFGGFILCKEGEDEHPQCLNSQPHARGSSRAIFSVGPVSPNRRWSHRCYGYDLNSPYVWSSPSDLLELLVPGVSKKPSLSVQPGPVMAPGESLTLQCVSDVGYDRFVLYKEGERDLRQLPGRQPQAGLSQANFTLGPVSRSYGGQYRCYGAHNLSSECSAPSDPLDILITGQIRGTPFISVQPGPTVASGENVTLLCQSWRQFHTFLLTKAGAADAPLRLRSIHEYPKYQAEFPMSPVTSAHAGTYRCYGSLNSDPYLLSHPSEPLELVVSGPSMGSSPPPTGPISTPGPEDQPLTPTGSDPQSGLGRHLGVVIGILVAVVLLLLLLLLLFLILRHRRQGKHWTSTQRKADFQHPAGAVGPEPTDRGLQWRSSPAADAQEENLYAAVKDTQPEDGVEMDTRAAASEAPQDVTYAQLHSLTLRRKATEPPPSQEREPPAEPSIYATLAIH
T3 sequence (O75019 17-489 limits assumed): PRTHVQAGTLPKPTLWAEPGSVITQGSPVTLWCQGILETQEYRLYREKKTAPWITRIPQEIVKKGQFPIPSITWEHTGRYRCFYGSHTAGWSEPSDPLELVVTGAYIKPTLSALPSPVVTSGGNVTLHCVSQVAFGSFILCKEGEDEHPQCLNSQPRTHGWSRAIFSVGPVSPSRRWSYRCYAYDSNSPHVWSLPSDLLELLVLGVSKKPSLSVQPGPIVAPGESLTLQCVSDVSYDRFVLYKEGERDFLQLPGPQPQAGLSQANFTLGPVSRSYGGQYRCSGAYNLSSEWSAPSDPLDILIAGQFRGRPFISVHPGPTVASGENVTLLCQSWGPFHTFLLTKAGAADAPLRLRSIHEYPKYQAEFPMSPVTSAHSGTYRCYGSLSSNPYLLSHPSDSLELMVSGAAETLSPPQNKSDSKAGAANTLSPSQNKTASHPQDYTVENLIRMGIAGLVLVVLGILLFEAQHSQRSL
T8 sequence (Q6PI73 24-481): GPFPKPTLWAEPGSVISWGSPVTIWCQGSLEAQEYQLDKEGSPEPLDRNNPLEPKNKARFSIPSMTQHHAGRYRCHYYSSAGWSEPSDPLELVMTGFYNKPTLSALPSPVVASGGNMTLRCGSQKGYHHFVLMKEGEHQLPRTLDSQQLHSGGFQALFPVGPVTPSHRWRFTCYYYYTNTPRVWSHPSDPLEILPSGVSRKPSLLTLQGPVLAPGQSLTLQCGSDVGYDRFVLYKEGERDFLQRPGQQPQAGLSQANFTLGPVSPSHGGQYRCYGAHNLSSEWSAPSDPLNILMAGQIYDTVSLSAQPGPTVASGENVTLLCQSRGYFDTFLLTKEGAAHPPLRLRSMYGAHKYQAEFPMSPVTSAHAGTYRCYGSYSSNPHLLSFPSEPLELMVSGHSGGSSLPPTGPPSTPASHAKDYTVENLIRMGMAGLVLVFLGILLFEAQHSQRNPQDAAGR
T5 sequence (Q8N6C8 24-439): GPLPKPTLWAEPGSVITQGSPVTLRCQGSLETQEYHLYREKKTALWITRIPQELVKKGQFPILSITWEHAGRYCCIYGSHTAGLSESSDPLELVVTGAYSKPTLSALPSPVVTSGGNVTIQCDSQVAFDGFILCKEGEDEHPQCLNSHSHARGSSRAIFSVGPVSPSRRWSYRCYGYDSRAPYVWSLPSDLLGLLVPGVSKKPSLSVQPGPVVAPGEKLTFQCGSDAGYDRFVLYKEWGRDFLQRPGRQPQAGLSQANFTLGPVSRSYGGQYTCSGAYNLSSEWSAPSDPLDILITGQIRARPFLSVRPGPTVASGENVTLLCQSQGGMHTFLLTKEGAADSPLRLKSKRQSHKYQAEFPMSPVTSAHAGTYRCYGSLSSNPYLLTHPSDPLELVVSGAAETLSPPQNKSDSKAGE
T11 sequence (O75023 24-590 limits assumed): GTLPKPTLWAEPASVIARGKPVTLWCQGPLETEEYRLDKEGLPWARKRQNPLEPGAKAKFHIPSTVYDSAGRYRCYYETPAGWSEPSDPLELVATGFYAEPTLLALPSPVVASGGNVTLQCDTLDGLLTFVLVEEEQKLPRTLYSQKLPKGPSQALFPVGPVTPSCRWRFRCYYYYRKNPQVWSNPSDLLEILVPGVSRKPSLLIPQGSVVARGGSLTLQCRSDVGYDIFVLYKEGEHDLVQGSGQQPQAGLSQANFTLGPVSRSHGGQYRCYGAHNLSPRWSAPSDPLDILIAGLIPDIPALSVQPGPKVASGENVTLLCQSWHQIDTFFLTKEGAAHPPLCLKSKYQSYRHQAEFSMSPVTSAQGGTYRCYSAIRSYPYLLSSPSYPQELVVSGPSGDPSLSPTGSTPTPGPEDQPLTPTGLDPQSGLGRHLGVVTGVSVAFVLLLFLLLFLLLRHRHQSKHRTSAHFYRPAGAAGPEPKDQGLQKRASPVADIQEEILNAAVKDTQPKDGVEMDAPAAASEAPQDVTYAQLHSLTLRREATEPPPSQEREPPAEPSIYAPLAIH
T4 sequence (Q8N149 24-483): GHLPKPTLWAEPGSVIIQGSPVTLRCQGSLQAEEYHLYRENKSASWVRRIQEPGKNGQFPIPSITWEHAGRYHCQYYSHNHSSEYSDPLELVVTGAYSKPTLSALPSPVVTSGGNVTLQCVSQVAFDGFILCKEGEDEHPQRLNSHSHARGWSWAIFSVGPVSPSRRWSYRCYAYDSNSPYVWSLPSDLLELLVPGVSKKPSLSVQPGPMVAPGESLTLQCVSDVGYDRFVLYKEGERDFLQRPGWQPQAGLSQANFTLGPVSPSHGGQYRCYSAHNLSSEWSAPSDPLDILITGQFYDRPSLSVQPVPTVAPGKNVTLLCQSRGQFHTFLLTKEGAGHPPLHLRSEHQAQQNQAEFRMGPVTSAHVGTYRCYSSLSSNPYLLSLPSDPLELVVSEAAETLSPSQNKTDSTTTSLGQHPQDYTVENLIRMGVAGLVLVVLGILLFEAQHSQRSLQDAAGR
T6 sequence (P59901 24-499): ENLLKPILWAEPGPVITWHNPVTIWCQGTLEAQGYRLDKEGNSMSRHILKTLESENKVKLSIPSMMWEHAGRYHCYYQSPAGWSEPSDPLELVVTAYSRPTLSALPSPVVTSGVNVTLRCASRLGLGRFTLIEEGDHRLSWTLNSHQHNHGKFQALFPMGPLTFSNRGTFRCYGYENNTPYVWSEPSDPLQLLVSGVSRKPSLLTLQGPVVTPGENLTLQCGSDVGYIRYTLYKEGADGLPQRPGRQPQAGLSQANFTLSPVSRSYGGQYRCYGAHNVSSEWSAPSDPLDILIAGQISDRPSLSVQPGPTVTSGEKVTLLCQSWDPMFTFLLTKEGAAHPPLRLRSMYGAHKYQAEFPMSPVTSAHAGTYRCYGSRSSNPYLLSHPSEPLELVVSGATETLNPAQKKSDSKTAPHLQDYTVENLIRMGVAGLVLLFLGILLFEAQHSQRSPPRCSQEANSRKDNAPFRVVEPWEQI
T7 sequence (A6NI73 42-299): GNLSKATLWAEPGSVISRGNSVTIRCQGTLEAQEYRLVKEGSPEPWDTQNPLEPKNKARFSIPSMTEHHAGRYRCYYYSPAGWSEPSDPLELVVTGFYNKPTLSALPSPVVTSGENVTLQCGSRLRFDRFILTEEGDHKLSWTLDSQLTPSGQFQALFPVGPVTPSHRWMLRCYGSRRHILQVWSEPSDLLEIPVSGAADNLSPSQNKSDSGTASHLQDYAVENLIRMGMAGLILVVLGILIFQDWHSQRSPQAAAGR

B1: PRO3697 (scFv)
scFv: AFQLTQSPSSLSASVGDRVTITCQASQSIGTYLAWYQQKPGKPPKLLIYRGGTLASGVPSRFSGSGSGTDFTLTISSLQPEDFATYYCQSYDSSNTFGTGTKVTVLGGGGGSGGGGSGGGGSGGGGSQEQLVESGGGLVQPGRSLRLSCAASGFDLSADYMCWVRQAPGKGLEWIACIYIDDDNTYYATWAKGRFTISKDNSKNTVYLQMNSLRAEDSAVYFCARGYGVYTGAITYFTLWGQGTLVKVSS
notes: anti-LILRB2 scFv; in the CELISA selectivity test it was cross-linked with an anti-framework antibody; also called 69-06-G04-sc05
Consider B1, for which, in assay [1], the Kd (commonly the equilibrium constant for the complex coming apart) was 0.131 nM. Besides, the koff (in general, a measure of how fast the partners let go of each other) in assay [1] came to 0.000128 s⁻¹. In addition, the kon (commonly the second-order rate constant of association) in assay [1] was found to be 974000 M⁻¹ s⁻¹. Further, in [2], the half-maximal inhibitory concentration (IC50) (as a rule, the concentration that inhibits the measured activity by half) turned out to be 0.593 nM. The binding result in [3], in [4], in assay [5], in assay [6], in assay [7] and in assay [8] was “no binding” each time. Besides, the binding result in assay [9], in [10] and in [11] was “no binding” throughout. In addition, the “Rel. max. inhibition % (rel. to J-19)” value in assay [12] came out at 99.5%.

For the origin of these results see EP4574844A1 (Numab Therapeutics AG, dated 2025).
